Common to all, as to format: biochemical
Series [1] has as its system rituximab. Briefly: Hydrolysis activity assay of Endo-S and D233 mutants, LC-ESI-MS. The protocol: (§1) The hydrolytic activity of the mutants generated was evaluated using rituximab as the substrate, and the transglycosylation activity was evaluated using the sugar oxazoline and the deglycosylated rituximab as the donor and acceptor substrates, respectively (Scheme 1).
(§2) The LC-MS characterization of different antibody glycoforms was conducted on an Exactive Plus Orbitrap instrument (Thermo Scientific). The intact antibody sample was analyzed with a Waters XBridge™ BEH300 C4 column (3.5 μm, 2.1×50 mm). The program includes a 9 min linear gradient of 5-90% MeCN containing 0.1% formic acid at a flow rate of 0.4 mL/min. The original mass data were processed through deconvolution and integration through MagTran Software (Amgen).
(§3) Peptide-N-Glycosidase F (PNGase F) treated rituximab was used as the internal standard due to its similarities to the deglycosylated and transferred product in terms of their molecular structures and ionization efficiencies. After PNGase F treatment, a mutation will be introduced into the amino acid sequence of rituximab so the product antibody will not interfere with the reaction via re-glycosylation^35. A standard product S2G2F-rituximab was synthesized following the previously reported procedure^29. […] Serial dilutions containing a gradient of S2G2F-rituximab (0, 0.25, 0.5, 0.75, 1.0, 1.25 and 1.5 μM) were mixed with a stock solution containing 0.67 μM internal standard. These mixed sample solutions were quantified by selected ion monitoring (SIM) to calculate the single-point normalization factor^31. The factor could then be used to calculate the relative amount of the final product N-glycoform for each reaction in the following experiments.
(§4) The hydrolytic activity of each Endo-S mutants and the wild-type (0.01 mg/mL) was assayed in PBS (pH 7.4, 10 μl) at 30° C. with synthetic biantennary sialo-complex-type rituximab (1.0 mg/mL, 6.9 μM) as the starting material. Each reaction was terminated at 5 min and an aliquot was taken from the reaction mixture and dissolved in 0.1% formic acid. The relative quantity of the hydrolysis product was calculated through deconvolution and integration of the selected MS peaks. The experimental details of product quantification using LC-MS are illustrated below. The transglycosylation activity of Endo-S was measured in a similar fashion: deglycosylated Rituximab (10.0 mg/mL, 69 μM) was incubated with SCT-Oxa (1.38 mM, 20 eq) under catalysis of Endo-S enzymes (0.01 mg/mL) under the same condition as hydrolysis. The transglycosylation product SCT-Rituximab was analyzed as mentioned above. Both functional assays were repeated twice for each mutant and the wild-type, and the average activity was recorded

In series [2] the test system is deglycosylated rituximab. Description: Transglycosylation activity assay of Endo-S and D233 mutants, LC-ESI-MS. The protocol: as §1, §2, §3, §4
Series [3] in a line: Kinetic measurements (KM, Vmax) of Endo-S/Endo-S2 mutants for SCT-Oxa. The protocol:
Using a sialylated glycan oxazoline (SCT-Oxa) as the donor and the deglycosylated rituximab as the acceptor substrate, we measured the kinetic parameters of the enzyme catalyzed glycosylation were measured. A mass spectrometry-based approach with an internal standard was used to estimate the product formation.^31-33.
as §3
Measurements of KM and Vmax for SCT-oxa. Serial dilutions with a total volume of 10 μL were prepared with a gradient of SCT-oxa concentrations and a constant deglycosylated antibody concentration mixed in PBS, pH 7.4. Each reaction was initiated by adding 1μμL, of Endo-S/S2 mutants with a concentration of 0.1 mg/M1 and the reaction was conducted at 30° C. The concentrations of SCT-oxa were within a range from 6.25 μM to 400 μM. For each reaction, three aliquots were taken at t=1, 2 and 3 min and immediately quenched in 100 μL 0.1% formic acid. The quenched reaction samples were then characterized by ESI-MS, and the concentration of product in each mixture was calculated using the normalization factor, as shown above. […] The KM and Vmax were measured by fitting the initial velocity against the SCT-oxa concentration using the GraphPad Prism7 program. The experiments were conducts in triplicate to determine the error in these measurements.

Series [4] has as its system deglycosylated rituximab. Description: Kinetic measurements (KM, Vmax) of Endo-S/Endo-S2 mutants for deglycosylated rituximab.
Text: as §3
Measurements of KM and Vmax for SCT-oxa. Serial dilutions with a total volume of 10 μL were prepared with a gradient of SCT-oxa concentrations and a constant deglycosylated antibody concentration mixed in PBS, pH 7.4. Each reaction was initiated by adding 1μμL, of Endo-S/S2 mutants with a concentration of 0.1 mg/M1 and the reaction was conducted at 30° C. The concentrations of SCT-oxa were within a range from 6.25 μM to 400 μM. For each reaction, three aliquots were taken at t=1, 2 and 3 min and immediately quenched in 100 μL 0.1% formic acid. The quenched reaction samples were then characterized by ESI-MS, and the concentration of product in each mixture was calculated using the normalization factor, as shown above. A linear progression curve was confirmed for each reaction by sampling at multiple early time points and plotting them in the same graph, which emphasized that the V0 measured indeed represents the initial rate of each reaction. The KM and Vmax were measured by fitting the initial velocity against the SCT-oxa concentration using the GraphPad Prism7 program. The experiments were conducts in triplicate to determine the error in these measurements.
The KM and Vmax values of both Endo-S and Endo-S2 mutants for the deglycosylated antibody substrate were measured in a similar fashion as to those for SCT-Oxa. In the serial reactions, the concentrations of antibody range from 0.313 μM to 20 μM, whereas the SCT-Oxa concentration was fixed at 400 μM. A similar control reaction was also performed for each concentration to monitor the non-enzymatic side reactions.

The test system of series [5] is deglycosylated rituximab. Description: Time-course comparison of transglycosylation with SCT-Oxazoline monitored by LC-ESI-MS (FIG. 1). The note with it: D233M, D233Q, D233A compared with glycan oxazoline under same conditions. The source says: The data sets presented here are representative of three independent experiments.
The parallel reactions were monitored by LC-ESI-MS (FIG. 1).

[6] abbreviates: Endo-S mutants, donor substrate SCT-Oxa, PBS pH 7.4, 30° C.
Where [7] appears, read: Endo-S mutants, acceptor substrate deglycosylated rituximab, SCT-Oxa fixed at 400 μM.

“Also recorded” adds a separate entry of the source.

B1: Endo-S D233M (protein)
chain: MDKHLLVKRTLGCVCAATLMGAALATHHDSLNTVKAEEKTVQVQKGLPSIDSLHYLSENSKKEFKEELSKAGQESQKVKEILAKAQQADKQAQELAKMKIPEKIPMKPLHGPLYGGYFRTWHDKTSDPTEKDKVNSMGELPKEVDLAFIFHDWTKDYSLFWKELATKHVPKLNKQGTRVIRTIPWRFLAGGDNSGIAEDTSKYPNTPEGNKALAKAIVDEYVYKYNLDGLDVMVEHDSIPKVDKKEDTAGVERSIQVFEEIGKLIGPKGVDKSRLFIMDSTYMADKNPLIERGAPYINLLLVQVYGSQGEKGGWEPVSNRPEKTMEERWQGYSKYIRPEQYMIGFSFYEENAQEGNLWYDINSRKDEDKANGINTDITGTRAERYARWQPKTGGVKGGIFSYAIDRDGVAHQPKKYAKQKEFKDATDNIFHSDYSVSKALKTVMLKDKSYDLIDEKDFPDKALREAVMAQVGTRKGDLERFNGTLRLDNPAIQSLEGLNKFKKLAQLDLIGLSRITKLDRSVLPANMKPGKDTLETVLETYKKDNKEEPATIPPVSLKVSGLTGLKELDLSGFDRETLAGLDAATLTSLEKVDISGNKLDLAPGTENRQIFDTMLSTISNHVGSNEQTVKFDKQKPTGHYPDTYGKTSLRLPVANEKVDLQSQLLFGTVTNQGTLINSEADYKAYQNHKIAGRSFVDSNYHYNNFKVSYENYTVKVTDSTLGTTTDKTLATDKEETYKVDFFSPADKTKAVHTAKVIVGDEKTMMVNLAEGATVIGGSADPVNARKVFDGQLGSETDNISLGWDSKQSIIFKLKEDGLIKHWRFFNDSARNPETTNKPIQEASLQIFNIKDYNLDNLLENPNKFDDEKYWITVDTYSAQGERATAFSNTLNNITSKYWRVVFDTKGDRYSSPVVPELQILGYPLPNADTIMKTVTTAKELSQQKDKFSQKMLDELKIKEMALETSLNSKIFDVTAINANAGVLKDCIEKRQLLKK
In general, Km refers to the substrate concentration at which the rate is half of its maximum. What is called kcat is the maximal rate divided by the concentration of active sites. In the case of B1, the “Specific Hydrolysis Activity” value in series [1] (rituximab 1.0 mg/mL as substrate, enzyme 0.01 mg/mL, PBS pH 7.4, 30° C., 5 min, duplicate) is 0.02 100*(μmol/min/mg). Further, the “hydrolysis activity (in words)” value in series [1] (rituximab as substrate, compared with wild type Endo-S and other mutants) is “remarkably low residual hydrolysis activity”. Also, in series [2] (based on Table 1), the “enhanced synthetic efficiency (T/H) over D233A” value is listed as roughly 8 fold and the “enhanced synthetic efficiency (T/H) over D233Q” value is recorded as “approximately 3 fold”. Also, the “transglycosylation activity (in words)” value in series [2] (biantennary complex-type glycan oxazoline to deglycosylated rituximab) is “most significant transglycosylation activities; also recorded: relatively high transglycosylation activity”. Besides, the “Transglycosylation Activity” value in series [2] (deglycosylated rituximab 10.0 mg/mL, SCT-Oxa 1.38 mM (20 eq), enzyme 0.01 mg/mL, PBS pH 7.4, 30° C., duplicate) is recorded as 2.71 100*(μmol/min/mg). For the same molecule, the “Transglycosylation/Hydrolysis Ratio T/H” value in series [2] (ratio of transglycosylation to hydrolysis activity, Table 1) was 135.50. In addition, the “overall efficiency for glycoform synthesis (T/H, in words)” value in series [2] (ratio of transglycosylation/hydrolysis) is “highest overall synthetic efficiency”. Further, in series [3] (setting [6]), the Km is 195 ± 7.21 µM and the kcat amounted to 0.0832 ± 0.0152 s⁻¹. For the same molecule, in series [3] (SCT-Oxa), the “increase in kcat/KM over Endo-S D233A” value stood at 3 fold, the “increase in turnover (kcat) over D233A” value is reported as “approximately 4 fold” and the “reduced affinity (KM) versus D233A” value was “less than 2 fold”. Moreover, the “substrate affinity for the deglycosylated antibody (in words)” value in series [4] (Asp-to-Met versus Asp-to-Ala mutant) was “much higher substrate affinity than the D233A mutant”. In addition, in series [4] (setting [7]), the Km came to 30.2 ± 7.21 µM and the kcat came out at 0.0922 ± 0.0318 s⁻¹. The Michaelis-Menten constant (Km) in series [4] (Endo-S mutants, acceptor substrate deglycosylated rituximab, SCT-Oxa fixed at 400 μM, listed as D233M) was 30 µM. In addition, the “transglycosylation efficiency in time-course (in words)” value in series [5] is “more efficient than the previously identified mutants, D233A and D233Q”.

(Values after patent US10836815B2, “Generation and comparative kinetic analysis of new glycosynthase mutants from Streptococcus pyogenes endoglycosidases for antibody glycoengineering” (UNIVERSITY OF MARYLAND, COLLEGE PARK, priority 2017, dated 2020).)
